US20030092091A1 (GlaxoSmithKline, published 2003)
Numbering of substitutions follows the chain as printed.

What was measured:
[1] = molecular target: SAF-2 (Siglec-8 / Siglec-8L) on the cell surface (human) (UniProt Q9NYZ4); experiment: cell-based or functional assay
[2] = molecular target: T1, SAF-2 polypeptide (extracellular domain of sialoadhesin factor-2, released from SAF-2/Fc by Factor Xa … (human, UniProt Q9NYZ4 17-363)); experiment: BIAcore SPR. The mAb was captured on a rabbit anti-mouse IgG Fc surface and SAF-2 was injected as analyte. KD was calculated from the rates.
T1 construct: extracellular domain; The BIAcore analyte is printed only as 'SAF-2 (diluted in HBS buffer)'; Residues left over from the cleavage site are not described; also called Siglec-8
Experimental: (§1) Kinetic data was evaluated using relationships described previously (Karlsson, et al. (1991) J. Immunol. Meth. 145:229). The mAb (diluted in HBS buffer, 10 mM HEPES, 150 mM NaCl, 0.01% Tween-20, pH 7.4) was injected over a rabbit anti-mouse IgG Fe surface, followed by buffer flow, and the RU was recorded. SAF-2 (diluted in HBS buffer) was then injected for 180 seconds, followed by a buffer flow for 300 seconds, and the RU was recorded. The sensor chip surface was regenerated by an injection of 0.1 M phosphoric acid. The on-rates (Kₐ) and off-rates (Kd) of binding were calculated using BIAcore (Uppswala, Sweden) software.

[3] = molecular target: T1, SAF-2 polypeptide (extracellular domain …); experiment: BIAcore SPR. The mAb was captured on a rabbit anti-mouse IgG Fc surface and SAF-2 was injected as analyte.
Experimental: as §1

Sequence of SAF-2 (Siglec-8 / Siglec-8L) on the cell surface (human) (Q9NYZ4 17-499): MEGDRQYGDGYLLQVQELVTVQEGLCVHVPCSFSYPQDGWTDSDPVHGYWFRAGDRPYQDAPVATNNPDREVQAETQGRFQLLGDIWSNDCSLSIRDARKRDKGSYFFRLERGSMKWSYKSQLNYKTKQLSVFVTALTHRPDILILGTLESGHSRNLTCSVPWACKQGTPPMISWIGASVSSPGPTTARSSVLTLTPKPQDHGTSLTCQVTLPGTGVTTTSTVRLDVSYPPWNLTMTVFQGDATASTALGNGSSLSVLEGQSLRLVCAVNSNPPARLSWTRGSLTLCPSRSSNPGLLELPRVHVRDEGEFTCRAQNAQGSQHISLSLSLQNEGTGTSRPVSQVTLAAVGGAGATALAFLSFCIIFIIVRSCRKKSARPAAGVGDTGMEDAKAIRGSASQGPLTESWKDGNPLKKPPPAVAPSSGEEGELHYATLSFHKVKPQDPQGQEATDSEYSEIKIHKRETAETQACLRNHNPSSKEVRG
T1 sequence (Q9NYZ4 17-363): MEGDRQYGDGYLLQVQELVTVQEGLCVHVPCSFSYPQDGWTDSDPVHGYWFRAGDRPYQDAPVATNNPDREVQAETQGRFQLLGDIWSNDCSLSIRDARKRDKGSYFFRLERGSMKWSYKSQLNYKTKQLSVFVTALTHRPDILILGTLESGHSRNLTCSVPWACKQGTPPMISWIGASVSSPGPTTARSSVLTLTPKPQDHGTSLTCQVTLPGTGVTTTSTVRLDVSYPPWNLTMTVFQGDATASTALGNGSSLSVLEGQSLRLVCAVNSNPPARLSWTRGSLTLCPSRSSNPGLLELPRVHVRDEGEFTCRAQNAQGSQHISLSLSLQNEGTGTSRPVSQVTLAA

B1: 2E2 mAb (antibody, from another filing, V domains shown)
VH: VQLKRASGPGLVAPSQSLSITCTVSGFSLTIYGAHWVRQPPGKGLEWLGVIWAGGSTNYNSALMSRLSISKDNSKSQVFLKINSLQTDDTALYYCARDGSSPYYYSMEYWGQGTSVTVSS
VL: QIILTQSPAIMSASPGEKVSITCSATSSVSYMHWFQQKPGTSPKLWIYSTSNLASGVPVRFSGSGSGTSYSLTISRMEAEDAATYYCQQRSSYPFTFGSGTKLEIKA
- apoptosis (annexin-V) of IL-5-primed eosinophils, 2E2 mAb alone [1]: 69%
- apoptosis (annexin-V) of unprimed eosinophils, 2E2 and secondary Ab [1]: 72%
- eosinophil death at 48-72 h of culture (erythrosin-B dye exclusion), 2E2 plus secondary polyclonal Ab [1]: > 90%
- eosinophil death at 24 h of culture (erythrosin-B dye exclusion), 2E2 plus secondary polyclonal Ab [1]: 68%

B2: monoclonal antibody 2C4 (antibody, IgG1, V domains shown)
VH: QVQLKESGPGLVAPSQSLSITCTVSGFSLIYGAHWVRQPPGKGLEWLGVIWAGGSTNYNSALMSRLSISKDNSKSQVFLKINSLQTDDTALYYCARDGSSPYYYSMEYWGQGTSVTVSS
VL: B1 VL with Q1E, A107R
notes: also called mAb 2C4
- Kd [2]: 0.2 nM
- koff [3]: 4.3e-05 s⁻¹
- kon [3]: 220000 M⁻¹ s⁻¹
